{"source": "patent US20080176953A1", "about": "“Methods and compositions for treatment of ocular neovascularization and neural injury” (Allergan, Inc., priority 2000, published 2008)", "molecules": {"B1": {"name": "PEDF: polypeptide originally isolated from cultured fetal human retinal pigment epithelial cells, approximate molecular weight 50 kDa (protein, UniProt P36955 20-418, looked up)", "Pigment epithelium-derived …": "QNPASPPEEGSPDPDSTGALVEEEDPFFKVPVNKLAAAVSNFGYDLYRVRSSTSPTTNVLLSPLSVATALSALSLGAEQRTESIIHRALYYDLISSPDIHGTYKELLDTVTAPQKNLKSASRIVFEKKLRIKSSFVAPLEKSYGTRPRVLTGNPRLDLQEINNWVQAQMKGKLARSTKEIPDEISILLLGVAHFKGQWVTKFDSRKTSLEDFYLDEERTVRVPMMSDPKAVLRYGLDSDLSCKIAQLPLTGSMSIIFFLPLKVTQNLTLIEESLTSEFIHDIDRELKTVQAVLTVPKLKLSYEGEVTKSLQEMKLQSLFDSPDFSKITGKPIKLTQVEHRAGFEWNEDGAGTTPSPGLQPAHLTFPLDYHLNQPFIFVLRDTDTGALLFIGKILDPRGP"}}, "key": {"[1]": {"system": "photoreceptors", "details": "intravitreal injection of purified NGF; cited from earlier work"}, "[2]": {"system": "\"wet\" age-related macular degeneration (ARMD)", "assay": "Photodynamic therapy (verteporfin) combined with intravenous PEDF in a patient, Example 1", "format": "in vivo", "description": "The day of scheduled PDT treatment, the patient is administered 6 mg/M^2 of verteporfin. […] The treatment requires irradiation of the […]."}, "[3]": {"system": "brain neurons in culture", "details": "cited from earlier work"}, "[4]": {"system": "retinoblastoma cells", "details": "cited from earlier work"}}}
{"molecule": "NGF: polypeptide known to have neuroprotective and neurotrophic effects", "values": [{"measurement": "survival of photoreceptors", "setting": "[1]", "result": "Increased survival of photoreceptors"}]}
{"molecule": "B1", "values": [{"measurement": "visual acuity", "setting": "[2]; 4 and 12 weeks following combined PDT and PEDF treatment", "result": "no discernable loss of vision"}, {"measurement": "renewed neovascularization", "setting": "[2]; 12 weeks following PDT treatment", "result": "No evidence of renewed neovascularization"}, {"measurement": "optic nerve axon loss", "setting": "[2]; after PDT with irradiation of the optic nerve", "result": "no evidence of optic nerve axon loss"}, {"measurement": "Fluorescein angiography, leakage in the treated tissue", "setting": "[2]; after one week and throughout the monitoring period", "result": "minimal leakage"}, {"measurement": "visual inspection of the retina (affected areas)", "setting": "[2]; one week following PDT, continuing through 12 week monitoring, intravenous PEDF every two days, verteporfin 6 mg/M^2", "result": "healthy with no whitening"}, {"measurement": "life of brain neurons in culture", "setting": "[3]", "result": "prolongs the life"}, {"measurement": "protection against acute neurotoxic insult", "setting": "[3]; e.g., glutamate toxicity", "result": "protects neurons"}, {"measurement": "differentiation of the retinoblastoma cells", "setting": "[4]", "result": "induces differentiation"}, {"measurement": "activity after heat incubation", "setting": "[4]; incubation of PEDF at 75° C.", "result": "does not prevent PEDF from differentiating retinoblastoma cells"}, {"measurement": "elaboration of neuron-like processes", "setting": "[4]; undifferentiated retinoblastoma cells", "result": "stimulate the elaboration of neuron-like processes"}]}
